From publication PMC5663490 (PLoS ONE, 2017) come the findings set out here.

In one test the target is HMunc18c (mouse) (UniProt Q60770). As to the kind of experiment: ITC; Munc18 proteins (HMunc18c or Munc18a-His) at 10–20 μM with Syntaxin partners at 100–550 μM; 298 K; 25 mM HEPES pH 8, 200 mM NaCl, 2 mM β-mercaptoethanol, 10% glycerol; 16 injections of 2.45 μL; which partner was in the syringe is not said. (Isothermal titration calorimetry measures the heat released or taken up as one component is titrated into another.)

The target in a further test is T1, HMunc18c (mouse, UniProt Q60770 1-592).
T1 construct: pQE30 vector; also called Munc18-3; source: E. coli BL21 with GroEL/ES chaperones, purified (Ni2+ resin, SEC, MonoS if required); not shown: His6, N-terminal, kept
T1 sequence (looked up): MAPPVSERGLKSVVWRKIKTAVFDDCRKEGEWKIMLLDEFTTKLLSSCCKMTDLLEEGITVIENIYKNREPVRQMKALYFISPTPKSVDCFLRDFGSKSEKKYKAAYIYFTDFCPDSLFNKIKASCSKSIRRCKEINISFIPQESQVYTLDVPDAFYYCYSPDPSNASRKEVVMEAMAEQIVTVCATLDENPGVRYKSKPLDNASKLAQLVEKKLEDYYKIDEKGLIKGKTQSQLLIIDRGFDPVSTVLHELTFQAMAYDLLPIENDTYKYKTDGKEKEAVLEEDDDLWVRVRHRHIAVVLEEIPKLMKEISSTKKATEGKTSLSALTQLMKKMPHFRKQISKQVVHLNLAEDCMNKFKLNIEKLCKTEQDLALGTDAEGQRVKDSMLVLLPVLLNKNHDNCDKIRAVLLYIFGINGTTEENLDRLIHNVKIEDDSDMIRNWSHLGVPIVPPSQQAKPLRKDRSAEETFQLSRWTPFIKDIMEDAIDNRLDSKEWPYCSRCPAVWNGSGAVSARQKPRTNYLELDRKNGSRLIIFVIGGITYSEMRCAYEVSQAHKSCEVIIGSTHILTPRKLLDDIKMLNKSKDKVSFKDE
The description is as above. The conditions noted are these: both partners purified.

The term Kd denotes the equilibrium constant for the complex coming apart. What is called stoichiometry N is a count of units in the complex or per binding partner. Consider “Sx1_(1-261)-His (from UniProt P32851 1-261) (domain or fragment)”, for which, in the test with HMunc18c (mouse), the Kd stood at 80 nM, the dH was -15.2 kcal/mol and the stoichiometry N worked out at 1.03.
For “ΔNSx1_(25-261)-His (from UniProt P32851 25-261) (domain or fragment)”, in the test with HMunc18c (mouse), the Kd amounted to 730000 nM, the dH was -4.44 kcal/mol and the stoichiometry N is 1.07.

B1: Sx4_(1-275)-His (domain or fragment, rat, UniProt Q08850 1-275, looked up)
chain: MRDRTHELRQGDNISDDEDEVRVALVVHSGAARLSSPDDEFFQKVQTIRQTMAKLESKVRELEKQQVTILATPLPEESMKQGLQNLREEIKQLGREVRAQLKAIEPQKEEADENYNSVNTRMKKTQHGVLSQQFVELINKSNSMQSEYREKNVERIRRQLKITNAGMVSDEELEQMLDSGQSEVFVSNILKDTQVTRQALNEISARHSEIQQLERSIRELHEIFTFLATEVEMQGEMINRIEKNILSSADYVERGQEHVKIALENQKKARKKKVM
notes: cloned into pET20b; also called Syntaxin4; not shown: His6, C-terminal, kept
For B1, in the test with HMunc18c, the affinity, expressed as Kd, was 100 nM; the dH is -14.1 kcal/mol; the “stoichiometry N” value turned out to be 1.03.
